{"source": "patent US20100150950A1", "about": "“HUMAN ANTIBODIES THAT BIND CD70 AND USES THEREOF” (Medarex, Inc., priority 2006, published 2010)", "molecules": {"B1": {"name": "anti-CD70 human monoclonal antibody 69A7 (antibody, V domains shown)", "VH": "QVQLQESGPGLVKPSETLSLTCTVSGGSVSSDYYYWSWIRQPPGKGLEWLGYIYYSGSTNYNPSLKSRVTISVDTSKNQFSLKLRSVTTADTAVYYCARGDGDYGGNCFDYWGQGTLVTVSS", "VL": "EIVLTQSPATLSLSPGERATLSCRASQSVSSYLAWYQQKPGQAPRLLIFDASNRATGIPARFSGSGSGTDFTLTISSLEPEDFAVYYCQQRSNWPLTFGGGTKVEIK", "notes": "Human IgG from hybridoma; also called HuMAb 69A7; FITC-conjugated 69A7"}, "B2": {"name": "2H5 NF: 2H5 HuMAb lacking fucosyl residues, expressed in CHO cell line Ms704-PF (antibody, V domains shown)", "VH": "QVQLVESGGGVVQPGRSLRLSCAASGFTFSSYIMHWVRQAPGKGLEWVAVISYDGRNKYYADSVKGRFTISRDNSKNTLYLQMNSLRAEDTAVYYCARDTDGYDFDYWGQGTLVTVSS", "VL": "B1 VL with F49Y, S92T"}}, "key": {"[1]": {"molecular_target": "T1, CD70+ renal carcinoma 786-O cells (Homo sapiens, UniProt P32970)", "T1 construct": "natively expressing CD70+ human cancer cell line 786-0 cells; endogenous in cells; host or cells: 786-O (ATCC CRL-1932), A-498 (HTB-44), ACHN (CRL-1611), Caki-1 (HTB-46), Caki-2 (HTB-47)", "T1 sequence (P32970 1-193)": "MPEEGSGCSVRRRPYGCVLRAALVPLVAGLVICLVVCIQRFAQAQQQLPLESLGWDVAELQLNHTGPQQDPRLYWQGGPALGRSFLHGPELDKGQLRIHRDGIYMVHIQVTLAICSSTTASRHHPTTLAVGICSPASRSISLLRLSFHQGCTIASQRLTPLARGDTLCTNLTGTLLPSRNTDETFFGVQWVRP", "experiment": "Blocking of mouse anti-CD70 antibody BU-69 binding", "details": "BU-69 1 μg/ml; 69A7 1, 5 or 10 μg/ml", "experimental": "In this experiment, the HuMAb anti-CD70 antibody 69A7 was tested for its ability to block binding of a known mouse anti-CD70 antibody to CD70+renal carcinoma 786-O cells. 786-O cells were incubated with the mouse anti-CD70 antibody BU-69 (Ancell, Bayport, Minn.) at 1 μg/ml and the HuMAb 69A7 at 1, 5 or 10 μg/ml for 20 minutes on ice. IgG1 and IgG2 isotype control antibodies were used as negative controls. The cells were washed twice and binding was detected with a FITC-labeled anti-human IgG Ab. Flow cytometric analyses were performed using a FACSCalibur flow cytometry (Becton Dickinson, San Jose, Calif.)."}, "IM-9 cells": {"tested_on": "IM-9 cells", "experiment": "ADCC fluorescence cytotoxicity assay, IM-9", "type": "cell-based, human", "details": "target to effector ratio 1:50", "experimental": "In this example, a defucosylated and non-defucosylated anti-CD70 monoclonal antibody was tested for the ability to kill CD70+cells in the presence of effector cells via antibody dependent cellular cytotoxicity (ADCC) in a fluorescence cytotoxicity assay\nHuman Anti-CD70 monoclonal antibody 2H5 was defucosylated as described above. Human effector cells were prepared from whole blood as follows. Human peripheral blood mononuclear cells were purified from heparinized whole blood by standard Ficoll-paque separation. The cells were resuspended in RPMI1640 media containing 10% FBS (culture media) and 200 U/ml of human IL-2 and incubated overnight at 37° C. The following day, the cells were collected and washed once in culture media and resuspended at 2×10^7 cells/ml. […]\nThe CD70+ cell lines ARH-77 (human B lymphoblast leukemia; ATCC Accession No. CRL-1621), MEC-1 (human chronic B cell leukemia; DSMZ Accession No. ACC 497), SU-DHL-6 (human B cell lymphoma, DSMZ Accession No. Acc572), IM-9 (human B lymphoblast; ATCC Accession No. CCL-159) and HuT 78 (human cutaneous lymphocyte lymphoma; ATCC Accession No. TIB-161), were tested for antibody specific ADCC to the defucosylated and non-defucosylated human anti-CD70 monoclonal antibody 2H5 using the Delfia fluorescence emission analysis as follows. […]"}, "activated T cells": {"tested_on": "activated T cells", "experiment": "ADCC fluorescence cytotoxicity assay, activated T cells", "type": "cell-based, human", "experimental": "In this example, a defucosylated and non-defucosylated anti-CD70 monoclonal antibody was tested for the ability to kill activated T cells in the presence of effector cells via antibody dependent cellular cytotoxicity (ADCC) in a fluorescence cytotoxicity assay.\nHuman Anti-CD70 monoclonal antibody 2H5 was defucosylated as described above. Human effector cells were prepared as described above. Human spleen T cells were positively selected with anti-CD3 coated magnetic beads (Purity>90%). The cells were stimulated with anti-CD3 and anti-CD28 coated beads and 25 ng/ml IL-2 in Iscove's media+10% heat inactivated FCS for 6 days. Cells were collected and assayed for viability by propidium iodide incorporation (60% viable) and live cells were gated and analyzed for CD70 expression (˜65% CD70+ on live cells) prior to inclusion in ADCC assays.\nThe activated T cells were tested for antibody specific ADCC to the defucosylated and non-defucosylated human anti-CD70 monoclonal antibody 2H5 using the Delfia fluorescence emission analysis as follows. […] Following a 2100 rpm pulse spin and one hour incubation at 37° C., the supernatants were collected, quick spun again and 20 μl of supernatant was transferred to a flat bottom plate, to which 180 μl of Eu solution (Perkin Elmer, Wellesley, Mass.) was added and read in a Fusion Alpha TRF plate reader (Perkin Elmer). […]"}}, "note": "Where a chain is given by its changes, count along the chain named."}
{"molecule": "B1", "values": [{"measurement": "blocking of mouse anti-CD70 antibody BU-69 binding", "setting": "[1]", "value": "blocks binding"}]}
{"molecule": "B2", "values": [{"measurement": "ADCC, % specific lysis of IM-9", "setting": "IM-9 cells", "value": "increased percentage of specific lysis"}, {"measurement": "antibody mediated cytotoxicity with addition of anti-CD16 antibody", "setting": "activated T cells; activated T cells", "value": "blocked"}, {"measurement": "ADCC, % specific lysis of activated T cells", "setting": "activated T cells; target to effector ratio 1:50", "value": "increased percentage of specific lysis"}]}
